# Test results from paper PMC7517352 (Frontiers in Microbiology, 2020).
# T1: VapC21 toxin (Rv2757c) of the VapBC21 complex co-expressed from pET-Duet (M. tuberculosis, UniProt P9WF91 1-138)
# T1 construct: also called VapC21 (in VapBC21 complex); not shown: His6, N-terminal, kept
# T1 sequence: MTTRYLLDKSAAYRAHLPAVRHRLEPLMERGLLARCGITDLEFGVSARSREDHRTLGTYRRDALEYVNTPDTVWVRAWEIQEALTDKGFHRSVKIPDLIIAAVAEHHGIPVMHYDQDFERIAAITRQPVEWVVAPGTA
# B1: VapB21 antitoxin (Rv2758c) of the VapBC21 complex co-expressed from pET-Duet (natural protein)
# chain: MHRGYALVVCSPGVTRTMIDIDDDLLARAAKELGTTTKKDTVHAALRAALRASAARSLMNRMAENATGTQDEALVNAMWRDGHPENTA
# notes: also called VapB21 (in VapBC21 complex)
# Molecular target: T1, VapC21 toxin (Rv2757c) of the VapBC21 …
# Test: SEC-MALS
# Settings: both partners purified
binder,measurement,value
B1,stoichiometry N,1 antitoxin per toxin (4:4)
